Assay [1] deals with 3′-O-azidomethyl-dCTP. As to the kind of experiment: Titration assay, incorporation of 3′-O-azidomethyl-dCTP. The following applies: for 3′-O-azidomethyl-dCTP incorporation / termination of synthesis: 72° C. (9° N) or 37° C.; for effect of the mutations on 3′-O-azidomethyl-dCTP incorporation: versus parent exo- polymerase. Type of assay: biochemical. As for the experimental part:
Reactions were also performed in the absence of terminators to ensure that synthesis by each DNA polymerase was sufficient to extend primers without premature termination (“dNTP” lanes). Reactions with Therminator™ (NEB, Inc., Ipswich, Mass.) and 9° N exo-L408P/Y409A/S411T DNA polymerase (SEQ ID NO:6) were incubated at 72° C. for 30 minutes. Reactions with E. coli Polymerase I (pol I) (NEB, Inc., Ipswich, Mass.), Sequenase™, (USB, Inc., Cleveland, Ohio), Mma exo- and Mma exo-L417P/Y418A/S420T were incubated at 37° C. for 30 minutes. Each band corresponds to a DNA fragment terminated by a 3′-azido-dCMP. Using a titration assay as described in Gardner and Jack (2002), the relative 3′-azido-dCTP incorporation efficiency was determined for a series of DNA polymerases.
Incorporation of 3′-O-azidomethyl-dCTP by various DNA polymerases was measured using the titration assay as described in Example 1. For each reaction, a ratio of either 10:1 or 1:1 3′-O-azidomethyl-dCTP:dNTP was used to generate a termination pattern. Each band corresponded to a DNA fragment terminated by a 3′-azido-dCMP. A control reaction lacking terminator (dNTP) which yielded large extension products gave assurance that the DNA polymerase was active, and that termination products resulted from terminator incorporation rather than incomplete polymerization. Reactions with Therminator™ (NEB, Inc., Ipswich, Mass.) and 9° N exo-L408P/Y409A/S411T DNA polymerase were incubated at 72° C. for 30 minutes. Reactions with E. coli Polymerase I (pol I) (NEB, Inc., Ipswich, Mass.), Sequenase™ (USB, Inc., Cleveland, Ohio), Mma exo- and Mma exo-L417P/Y418A/S420T were conducted at 37° C. for 30 mintues. Therminator™ (NEB, Inc., Ipswich, Mass.) DNA polymerase was assayed with a 1:1 ratio of acyCTP as control.

Assay [2] relates to modified nucleotide. As to the kind of experiment: Screen of DNA polymerase mutants for modified nucleotide incorporation. Type of assay: biochemical. The method, boiled down: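 Chain-terminator titration (Gardner and Jack 2002) compared terminator amounts giving equal product-size spectra, product size shrinking as terminator incorporation rises. Applied to purified 9° N exo- polymerase library mutants with 3′-azido-ddCTP and 3′-amino-ddCTP; incorporation rates also measured.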

Where [3] appears, read: 10:1 or 1:1 3′-O-azidomethyl-dCTP:dNTP, 30 minutes.

The text below walks through data of patent publication US20110045489A1, “Polymerases for Incorporating Modified Nucleotides” (NEW ENGLAND BIOLABS, INC., priority 2008, published 2011).

B1: 9° N exo-L408P/Y409A/S411T: 9° N DNA polymerase mutant, SEQ ID NO:6 (protein)
chain: MILDTDYITENGKPVIRVFKKENGEFKIEYDRTFEPYFYALLKDDSAIEDVKKVTAKRHGTVVKVKRAEKVQKKFLGRPIEVWKLYFNHPQDVPAIRDRIRAHPAVVDIYEYDIPFAKRYLIDKGLIPMEGDEELTMLAFAIATLYHEGEEFGTGPILMISYADGSEARVITWKKIDLPYVDVVSTEKEMIKRFLRVVREKDPDVLITYNGDNFDFAYLKKRCEELGIKFTLGRDGSEPKIQRMGDRFAVEVKGRIHFDLYPVIRRTINLPTYTLEAVYEAVFGKPKEKVYAEEIAQAWESGEGLERVARYSMEDAKVTYELGREFFPMEAQLSRLIGQSLWDVSRSSTGNLVEWFLLRKAYKRNELAPNKPDERELARRRGGYAGGYVKEPERGLWDNIVYLDFRSPAPTIIITHNVSPDTLNREGCKEYDVAPEVGHKFCKDFPGFIPSLLGDLLEERQKIKRKMKATVDPLEKKLLDYRQRAIKILANSFYGYYGYAKARWYCKECAESVTAWGREYIEMVIRELEEKFGFKVLYADTDGLHATIPGADAETVKKKAKEFLKYINPKLPGLLELEYEGFYVRGFFVTKKKYAVIDEEGKITTRGLEIVRRDWSEIAKETQARVLEAILKHGDVEEAVRIVKEVTEKLSKYEVPPEKLVIHEQITRDLRDYKATGPHVAVAKRLAARGVKIRPGTVISYIVLKGSGRIGDRAIPADEFDPTKHRYDAEYYIENQVLPAVERILKAFGYRKEDLRYQKTKQVGLGAWLKVKGKK
modifications: Thermococcus sp. 9 degrees N DNAP mutant
For the molecule B1, the “3′-O-azidomethyl-dCTP incorporation / termination of synthesis” value in assay [1] (setting [3]) is listed as “incorporated 3′-O-azidomethyl-dCTP efficiently”. Moreover, the “effect of the mutations on 3′-O-azidomethyl-dCTP incorporation” value in assay [1] is on record as “increased 3′-O-azidomethyl-dCTP incorporation”. Moreover, in assay [2], the “increase of modified nucleotide incorporation” value is “at least two-fold”.

B2: Mma exo-L417P/Y418A/S420T: exonuclease minus mutant Mma DNA polymerase, SEQ ID NO:23 (protein, listed as Methanococcus maripaludis)
chain: MESLIDLDYNSDDLCIYLYLINSIIKEKDFKPYFYVNSTDKEQILEFLKDYEKKHKLDSEISKMIENIETVKKIVFDENYQEKELSKVTVKYPNNVKTVREILMEFERLYEYDIPFVRRYLIDNSVIPTSTWDFENNKKIDNKIPDFKTVSFAIAVYCNKEPNPKKDPIIMASFSSKDFNTVVSTKKFDHEKLEYVKDEKELIKRIIEILKEYDIIYTYNGDNFDFPYLKKRAESFGLELKLGKNDEKIKITKGGMNSKSYIPGRVHIDLYPIARRLLNLTKYRLENVTEALFDVKKVDVGHENIPKMWDNLDETLVEYSHQDAYYTQRIGEQFLPLEIMFSRVVNQSLYDINRMSSSQMVEYLLLKNSYKMGVIAPNRPSGKEYQKRIRSSYEGGYVKEPLKGIHEDIVSMDFLSPAPTIIMSHNLSPETIDCTCCSDEENGENEEILGHKFCKKSIGIIPKTLMDLINRRKKVKKVLREKAEKGEFDEEYQILDYEQRSIKVLANSHYGYLAFPMARWYSRDCAEITTHLGRQYIQKTIEEAENFGFKVIYADTDGFYSKWADDKEKLSKYELLEKTREFLKNINNTLPGEMELEFEGYFKRGIFVTKKKYALIDENEKITVKGLEVVRRDWSNVSKNTQKNVLNALLKEGSVENAKKVIQDTIKELKDGKVNNEDLLIHTQLTKRIEDYKTTAPHVEVAKKILKSGNRVNTGDVISYIITSGNKSISERAEILENAKNYDTNYYIENQILPPVIRLMEALGITKDELKDSKKQYTLHHFLK
modifications: (1)..(784) exo_ L417P/Y418A/S420T mutant
On to B2, for which the “3′-O-azidomethyl-dCTP incorporation / termination of synthesis” value in assay [1] (setting [3]) is given as “incorporated 3′-O-azidomethyl-dCTP efficiently”. Moreover, the “relative 3′-O-azidomethyl-dCTP incorporation efficiency, rank order” value in assay [1] (10:1 or 1:1 3′-O-azidomethyl-dCTP:dNTP, 72° C. or 37° C., 30 minutes, FIG. 8) is given as “greater than Mma exo-”. The “effect of the mutations on 3′-O-azidomethyl-dCTP incorporation” value in assay [1] is reported as “increased 3′-O-azidomethyl-dCTP incorporation”. In assay [2], the “increase of modified nucleotide incorporation” value is “at least two-fold”.
